Residue numbers refer to the chain shown, from its start.
Assays:
CGI121 = target: T1, CGI121 (Arabidopsis thaliana, UniProt Q6NMZ4 1-172); assay: EMSA; MST: 20 mM PBS pH 7.5, 300 mM NaCl, 0.05% Tween 20, 25 C, 50 nM RNA; EMSA: 20 mM Tris-HCl pH 7.5, 300 mM NaCl, 5 mM b-mercaptoethanol, 20% glycerol, agarose gel in Tris-glycine pH 8.0 (8.5 for FAM-RNA), 4 C; conditions: protein: recombinant; tags: 6His (C-term); label: 5' 6-FAM; tRNA cloverleaf
T1 sequence: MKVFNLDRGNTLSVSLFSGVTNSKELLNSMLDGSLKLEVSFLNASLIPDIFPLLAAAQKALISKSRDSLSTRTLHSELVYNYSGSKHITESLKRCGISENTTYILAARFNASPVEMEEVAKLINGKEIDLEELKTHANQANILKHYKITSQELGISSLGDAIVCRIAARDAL

[1] = target: T2, KAE1;BUD32 I47K;CGI121;PCC1 (Arabidopsis thaliana;Arabidopsis …, UniProt O49653;Q94K14;Q6NMZ4;Q8GWD7 1-353;1-226;1-172;1-96, |I47K||); assay: as above; conditions: protein: recombinant;recombinant;recombinant;recombinant; tags: none (6His on partner PCC1);;6His (C-term);6His (C-term); chain copies: 2;2;2;2; label: 5' 6-FAM; tRNA cloverleaf
T2 sequence 1: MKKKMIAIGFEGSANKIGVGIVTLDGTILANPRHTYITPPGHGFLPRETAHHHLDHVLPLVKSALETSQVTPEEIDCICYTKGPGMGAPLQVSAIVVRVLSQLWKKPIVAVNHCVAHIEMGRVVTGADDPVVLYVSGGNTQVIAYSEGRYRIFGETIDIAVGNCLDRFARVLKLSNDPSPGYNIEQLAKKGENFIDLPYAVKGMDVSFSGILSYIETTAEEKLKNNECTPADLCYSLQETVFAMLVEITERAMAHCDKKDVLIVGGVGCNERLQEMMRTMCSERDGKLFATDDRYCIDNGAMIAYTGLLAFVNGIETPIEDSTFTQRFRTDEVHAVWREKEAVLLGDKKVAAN
T2 sequence 2: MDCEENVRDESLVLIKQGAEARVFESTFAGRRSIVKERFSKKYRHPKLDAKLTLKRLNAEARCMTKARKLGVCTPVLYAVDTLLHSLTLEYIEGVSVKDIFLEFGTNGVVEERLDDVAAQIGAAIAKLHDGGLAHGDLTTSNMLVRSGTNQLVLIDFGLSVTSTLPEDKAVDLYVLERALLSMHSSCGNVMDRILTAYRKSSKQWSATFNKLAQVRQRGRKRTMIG
T2 sequence 3: T1 sequence
T2 sequence 4: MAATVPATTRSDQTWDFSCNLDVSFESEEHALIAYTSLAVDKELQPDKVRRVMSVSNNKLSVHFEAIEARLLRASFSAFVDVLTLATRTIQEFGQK

[2] = target: T3, KAE1;BUD32 R220stop;CGI121;PCC1 (Arabidopsis thaliana;Arabidopsis …, UniProt O49653;Q94K14;Q6NMZ4;Q8GWD7 1-353;1-219;1-172;1-96, |del220-226||); assay: as above; conditions: protein: recombinant;recombinant;recombinant;recombinant; tags: none (6His on partner PCC1);;6His (C-term);6His (C-term); chain copies: 2;2;2;2; label: 5' 6-FAM; tRNA cloverleaf
T3 sequence 1: T2 sequence 1
T3 sequence 2: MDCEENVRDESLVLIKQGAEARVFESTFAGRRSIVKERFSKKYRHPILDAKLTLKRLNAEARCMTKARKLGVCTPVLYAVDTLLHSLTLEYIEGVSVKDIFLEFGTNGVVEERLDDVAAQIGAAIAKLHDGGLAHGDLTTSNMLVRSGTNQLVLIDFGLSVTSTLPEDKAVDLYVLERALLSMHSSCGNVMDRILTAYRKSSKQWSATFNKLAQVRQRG
T3 sequence 3: T1 sequence
T3 sequence 4: T2 sequence 4

KAE1;PCC1 = target: T4, KAE1;PCC1 (Arabidopsis thaliana;Arabidopsis …, UniProt O49653;Q8GWD7 1-353;1-96, |); assay: as above; conditions: protein: recombinant;recombinant; tags: none (6His on partner PCC1);6His (C-term); chain copies: 2;2; label: 5' 6-FAM; tRNA cloverleaf
T4 sequence 1: T2 sequence 1
T4 sequence 2: T2 sequence 4

KAE1;BUD32;CGI121;PCC1 = target: T5, KAE1;BUD32;CGI121;PCC1 (Arabidopsis thaliana;Arabidopsis …, UniProt O49653;Q94K14;Q6NMZ4;Q8GWD7 1-353;1-226;1-172;1-96, |||); assay: MST; KEOPS dimer; MST: 20 mM PBS pH 7.5, 300 mM NaCl, 0.05% Tween 20, 25 C, 50 nM RNA; EMSA: 20 mM Tris-HCl pH 7.5, 300 mM NaCl, 5 mM b-mercaptoethanol, 20% glycerol, agarose gel in Tris-glycine pH 8.0 (8.5 for FAM-RNA), 4 C; conditions: protein: recombinant;recombinant;recombinant;recombinant; tags: none (6His on partner PCC1);none (6His on partner CGI121);6His (C-term);6His (C-term); chain copies: 2;2;2;2; label: 5' 6-FAM; tRNA cloverleaf
T5 sequence 1: T2 sequence 1
T5 sequence 2: T2 sequence 2 with K47I
T5 sequence 3: T1 sequence
T5 sequence 4: T2 sequence 4

B1: 5'-6FAM-tRNAArgCCU (structured_RNA)
RNA: GCGCCUGUAGCUCAGUGGAUAGAGCGUCUGUUUCCUAAGCAGAAGGUCGUAGGUUCGACCCCUACCUGGCGCGCCA
binding result (CGI121): no binding
binding result [1]: binds
binding result [2]: binds
binding result (KAE1;PCC1): no binding
Kd (KAE1;BUD32;CGI121;PCC1): 18.1 ± 3.87 µM

— PMC11077089, “Molecular basis of A. thaliana KEOPS complex in biosynthesizing tRNA t6A”
